3 molecules from publication PMC6082870 (2018) can be followed below.

What all share (experiment): SPR
Assay [1] addresses T1, human lysyl hydroxylase 3 (LH3/PLOD3), wild type (human, UniProt O60568 25-738, N-linked glycosylations at Asn63 and Asn548).
T1 chain: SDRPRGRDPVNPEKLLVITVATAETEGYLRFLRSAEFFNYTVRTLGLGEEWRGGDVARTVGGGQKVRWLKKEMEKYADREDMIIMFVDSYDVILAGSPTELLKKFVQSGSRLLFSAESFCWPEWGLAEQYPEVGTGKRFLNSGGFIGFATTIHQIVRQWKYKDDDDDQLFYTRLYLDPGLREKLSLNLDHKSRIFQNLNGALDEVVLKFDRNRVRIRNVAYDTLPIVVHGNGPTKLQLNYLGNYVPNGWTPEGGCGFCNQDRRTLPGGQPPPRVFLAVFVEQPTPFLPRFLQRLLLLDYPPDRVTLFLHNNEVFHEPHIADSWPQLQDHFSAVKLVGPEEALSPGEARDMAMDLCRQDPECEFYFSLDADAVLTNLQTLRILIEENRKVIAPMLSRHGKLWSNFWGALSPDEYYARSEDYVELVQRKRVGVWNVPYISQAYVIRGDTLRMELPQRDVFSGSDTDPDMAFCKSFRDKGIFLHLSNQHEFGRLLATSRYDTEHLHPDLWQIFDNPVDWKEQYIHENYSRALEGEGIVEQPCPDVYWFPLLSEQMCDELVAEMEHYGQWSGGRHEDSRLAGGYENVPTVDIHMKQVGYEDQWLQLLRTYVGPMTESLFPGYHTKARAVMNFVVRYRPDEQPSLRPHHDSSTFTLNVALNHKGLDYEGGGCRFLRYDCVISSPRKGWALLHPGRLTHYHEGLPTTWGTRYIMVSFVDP

For a further assay, the target named is LH3 W75A mutant (human, UniProt O60568 25-738, W75A).
The target in the next assay is LH3 Y114A mutant (human, UniProt O60568 25-738, Y114A).
Chain of LH3 Y114A mutant (O60568 25-738 Y114A): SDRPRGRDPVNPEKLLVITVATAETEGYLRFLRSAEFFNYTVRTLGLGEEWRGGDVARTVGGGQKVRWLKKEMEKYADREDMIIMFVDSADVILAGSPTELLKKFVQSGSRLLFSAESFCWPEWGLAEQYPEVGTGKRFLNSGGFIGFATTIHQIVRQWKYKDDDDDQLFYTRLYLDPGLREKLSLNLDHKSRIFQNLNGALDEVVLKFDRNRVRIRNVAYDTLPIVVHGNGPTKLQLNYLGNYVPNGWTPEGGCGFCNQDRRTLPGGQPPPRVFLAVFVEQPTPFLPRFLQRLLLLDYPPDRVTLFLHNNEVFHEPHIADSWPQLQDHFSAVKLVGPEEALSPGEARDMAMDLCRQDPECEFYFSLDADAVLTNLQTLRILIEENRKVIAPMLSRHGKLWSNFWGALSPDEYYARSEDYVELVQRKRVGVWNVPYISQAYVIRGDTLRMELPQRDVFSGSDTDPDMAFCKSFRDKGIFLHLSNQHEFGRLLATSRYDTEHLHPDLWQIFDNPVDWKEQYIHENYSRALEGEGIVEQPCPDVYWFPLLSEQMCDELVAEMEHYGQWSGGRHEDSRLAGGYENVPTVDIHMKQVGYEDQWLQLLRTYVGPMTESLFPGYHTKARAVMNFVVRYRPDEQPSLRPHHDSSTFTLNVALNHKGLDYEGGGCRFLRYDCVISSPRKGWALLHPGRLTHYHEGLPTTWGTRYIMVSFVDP

Chain of LH3 W75A mutant (O60568 25-738 W75A): as the sequence (O60568 25-738 Y114A) above, with W51A, A90Y counted along it

B1: IKGIKGIKG (peptide)
chain: IKGIKGIKG
On to B1, for which binding in assay [1] was characterised by a dissociation constant (Kd) of 6.7 mM.

B2: GIKGIKGIKGIK (peptide)
chain: GIKGIKGIKGIK
As for B2, binding in assay [1] was characterised by a dissociation constant (Kd) of 2.4 mM.

B3: ARGIKGIRGFS (peptide)
chain: ARGIKGIRGFS
Regarding B3, the results for the Kd (in assay [1]; with LH3 W75A mutant; with LH3 Y114A mutant) were 4.4 mM, 4.7 mM and 6.3 mM, respectively.
